The record followed here is US20100286027A1, “ANTI-BACTERIAL COMPOSITIONS” (priority 2008, published 2010).

Assay [1] concerns B. subtilis. In words: Bacterial growth inhibition (FIG. 14). The assay is classed as cell-based, Bacillus subtilis. The note with it: FIG. 14 Panel A; increasing concentrations, relative to controls (100%). The protocol: Values shown are relative to controls incubated in the absence of LRR domains (100%).
In assay [2] the test system is Clostridium difficile NB95002. In words: MIC against anaerobic bacteria. It is filed as cell-based.
In assay [3] the test system is Streptococcus pneumoniae (49619). As to the kind of experiment: BacTiter-Glo bacterial ATP content viability assay. The note with it: gram +, +/− SD, n = 3, >100 = activity detected but <50% inhibition.
Assay [4] relates to Clostridium ramosum NB95010. As to the kind of experiment: MIC against anaerobic bacteria. It is filed as cell-based.
The test system of assay [5] is Propionibacterium acnes NB99001. In words: MIC against anaerobic bacteria. It is filed as cell-based.
The test system of assay [6] is E. coli NB27004. In words: MIC against aerobic gram negative bacteria. The assay is classed as cell-based, Escherichia coli.
Assay [7] deals with E. coli NB27005* (TolC efflux pump mutant). In words: MIC against aerobic gram negative bacteria, efflux pump mutant. It is filed as cell-based, Escherichia coli. The settings on record: aerobic gram negative; E. coli NB27005*, TolC efflux pump mutant strain.
Assay [8] deals with porins (OmpC and OmpF). As to the kind of experiment: LRR domain affinity column and mass spectrometry protein identification. The settings on record: guanidinium HCl extract of detergent-insoluble E. coli fraction; SDS-PAGE, mass spectrometry.
Assay [9] relates to E. coli. In words: Aggregation of E. coli in vitro, light microscopy. On the set-up: species or system Escherichia coli. The note with it: 10^6 E. coli in 1 ml PBS, 20 microgram/ml protein, 12 hours. The protocol: FIG. 4: Aggregation of E. coli in vitro following incubation with recombinant Nod2 LRR domains. E. coli (10^6) in 1 ml of PBS were incubated with either 20 microgram/ml BSA or purified recombinant Nod2 LRR domains for 12 hours. Aliquots of the cultures were inoculated on a coverslipped slide and analyzed by light microscopy using a 63× objective.
The Nod2 positive staining of the bacteria in the cytoplasm of cultured cells could either be a direct interaction or result from the colocalization of Nod2 and bacteria in an unidentified vesicular structure. In order to test the hypothesis that the interaction between Nod2 and E. coli was direct, purified recombinant LRR domains from Nod2 were incubated with E. coli (FIG. 4). […] This supports the hypothesis that Nod2 LRR domains can directly interact with E. coli.

Assay [10] concerns P. aeruginosa NB52019. In words: MIC against aerobic gram negative bacteria. It is filed as cell-based, Pseudomonas aeruginosa.

B1: Nod2: purified recombinant LRR domain of Nod2 expressed in E. coli; human NOD2-LRR is SEQ ID NO: 3; ~30000 da (protein, listed as Homo sapiens)
chain: PAAPGEAKSVHAMPGFIWLIRSLYEMQEERLARKAARGLNVGHLKLTFCSVGPTECAALAFVLQHLRRPVALQLDYNSVGDIGVEQLLPCLGVCKALYLRDNNISDRGICKLIECALHCEQLQKLALFNNKLTDGCAHSMAKLLACRQNFLALRLGNNYITAAGAQVLAEGLRGNTSLQFLGFWGNRVGDEGAQALAEALGDHQSLRWLSLVGNNIGSVGAQALALMLAKNVMLEELCLEENHLQDEGVCSLAEGLKKNSSLKILKLSNNCITYLGAEALLQALERNDTILEVWLRGNTFSLEEVDKLGCRDTRLLL
notes: purified recombinant LRR domain of Nod2 expressed in E. coli; ~30000 da
Regarding B1, in assay [1], the “growth of B. Subtilis” value is “inhibits the growth”. Also, the “minimal inhibitory concentration (MIC)” value in assay [2] was 4 microgram/ml; in [4], 4 microgram/ml; in [5], 4 microgram/ml; in assay [6] it was greater than 128 microgram/ml; in [7], 32 microgram/ml; in assay [10], greater than 128 microgram/ml. In addition, in assay [3], the “antibacterial activity by bacterial ATP content (IC50), [LRR domain]” value is 3.0 +/− 1.6 microgram/ml. The “porins (OmpC and OmpF) identified in eluate of LRR affinity column” value in assay [8] is given as “specifically identified in the eluate”. For the same molecule, in assay [9], the “aggregation of E. coli” value was “aggregated and debris could be observed”.
